For assay [1], the target named is T1, MoFe protein^HisΔZ (His-tagged nitrogenase MoFe protein produced in a nifZ-deletion strain) (Azotobacter vinelandii, UniProt P07328 1-492; P07329 1-523).
T1 construct: nitrogenase MoFe protein α-subunit (NifD), Azotobacter vinelandii; polyhistidine-encoding tag incorporated into the N-terminal coding region; nitrogenase MoFe protein β-subunit (NifK), Azotobacter vinelandii; A mixed population: αβ-units hold either an immature P-cluster without FeMo-cofactor or a mature P-cluster with FeMo-cofactor; also called MoFe^His protein; α2β2 heterotetramer; source: A. …
T1 sequence (looked up) 1: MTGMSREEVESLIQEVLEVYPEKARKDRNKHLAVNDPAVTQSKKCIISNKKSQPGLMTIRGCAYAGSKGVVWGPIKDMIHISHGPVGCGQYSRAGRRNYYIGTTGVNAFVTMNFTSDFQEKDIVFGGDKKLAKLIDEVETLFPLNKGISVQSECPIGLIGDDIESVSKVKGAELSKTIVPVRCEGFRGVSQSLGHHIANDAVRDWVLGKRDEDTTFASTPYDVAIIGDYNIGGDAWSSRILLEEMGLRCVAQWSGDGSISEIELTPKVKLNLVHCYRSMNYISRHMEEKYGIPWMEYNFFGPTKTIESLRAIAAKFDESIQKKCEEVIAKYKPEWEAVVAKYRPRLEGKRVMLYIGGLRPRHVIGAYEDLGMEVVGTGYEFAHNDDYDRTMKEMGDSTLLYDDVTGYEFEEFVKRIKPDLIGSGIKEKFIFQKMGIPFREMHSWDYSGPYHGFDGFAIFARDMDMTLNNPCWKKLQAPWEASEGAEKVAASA
T1 sequence (looked up) 2: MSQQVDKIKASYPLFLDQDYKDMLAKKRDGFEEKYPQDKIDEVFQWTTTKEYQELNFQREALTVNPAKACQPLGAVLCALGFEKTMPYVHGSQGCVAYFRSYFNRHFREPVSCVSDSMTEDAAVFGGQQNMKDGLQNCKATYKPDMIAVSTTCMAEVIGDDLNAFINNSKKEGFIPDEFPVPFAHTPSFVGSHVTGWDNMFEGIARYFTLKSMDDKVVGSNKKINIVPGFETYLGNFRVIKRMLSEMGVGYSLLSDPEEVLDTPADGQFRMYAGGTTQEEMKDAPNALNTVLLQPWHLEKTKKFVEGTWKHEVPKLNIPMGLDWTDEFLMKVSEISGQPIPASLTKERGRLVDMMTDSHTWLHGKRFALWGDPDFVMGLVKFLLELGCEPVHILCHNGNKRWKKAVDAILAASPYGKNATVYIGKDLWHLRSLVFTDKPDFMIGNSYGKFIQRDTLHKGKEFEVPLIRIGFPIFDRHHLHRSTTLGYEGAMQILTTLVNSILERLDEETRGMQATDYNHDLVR
The assay is described as follows: affinity purification with mass spectrometry; MoFe protein^HisΔZ isolated by IMAC from extract of cells derepressed 4 h, then Q-Sepharose anion exchange (200-500 mM NaCl gradient); fractions on SDS-PAGE, Coomassie, densitometry; bands identified by MALDI. As to conditions: partners not purified.

In assay [2] the target is T2, MoFe protein^StrΔZ (Strep-tagged nitrogenase MoFe protein produced in a nifZ-deletion strain) (Azotobacter vinelandii, UniProt P07328 1-492; P07329 1-523).
T2 construct: nitrogenase MoFe protein α-subunit (NifD), Azotobacter vinelandii; Strep-encoding tag incorporated into the N-terminal coding region; nitrogenase MoFe protein β-subunit (NifK), Azotobacter vinelandii; A mixed population: αβ-units hold either an immature P-cluster without FeMo-cofactor or a mature P-cluster with FeMo-cofactor; also called MoFe^StrΔZ; α2β2 heterotetramer; source: A. vinelandii …
T2 sequence (looked up) 1: T1 sequence (looked up) 1
T2 sequence (looked up) 2: T1 sequence (looked up) 2
The assay is described as follows: affinity purification with mass spectrometry; MoFe protein^StrΔZ isolated on Strep-Tactin (STAC) from cell extract, then Q-Sepharose anion exchange (200-500 mM NaCl gradient); fractions on SDS-PAGE, Coomassie, densitometry; bands identified by MALDI; also after incubating the extract 0-240 min with 36 mM Na2S2O4 at 30 °C (NifW slowly dissociates). As to conditions: partners not purified.

Where “and” joins values, the source holds several entries; their conditions need not be identical. Equal entries are not always repeated.

B1: NifW (accessory protein, endogenous) (natural protein, UniProt P14888 1-115, looked up)
chain: MTVQPFSPDSDLTLDEAMDELVSAEDFLEFFGVPFDQDVVHVNRLHIMQRYHDYLSKAGDLDEHDDQARYAVFQKLLARAYLDFVESDALTEKVFKVFRMHEPQKTFVSIDQLLS
notes: NifW, Azotobacter vinelandii; also called NifW assembly factor; source: endogenous, A. vinelandii DJ1182 or DJ2111 cell extract; co-purified with MoFe protein
For the molecule B1, the “stoichiometry N” value in assay [1] is ~1 NifW per α2β2 heterotetramer and 2 NifW per α2β2 heterotetramer; in assay [2], ~1 NifW per α2β2 heterotetramer and ~2 NifW per α2β2 heterotetramer.

Values taken from PMC6484116, “The NifZ accessory protein has an equivalent function in maturation of both nitrogenase MoFe protein P-clusters” (The Journal of Biological Chemistry, 2019).
